Numbering of substitutions follows the chain as printed.
T1: hemagglutinin (HA) of influenza B virus B/Lee/1940, on purified virus (influenza B virus (B/Lee/1940))
T1 chain: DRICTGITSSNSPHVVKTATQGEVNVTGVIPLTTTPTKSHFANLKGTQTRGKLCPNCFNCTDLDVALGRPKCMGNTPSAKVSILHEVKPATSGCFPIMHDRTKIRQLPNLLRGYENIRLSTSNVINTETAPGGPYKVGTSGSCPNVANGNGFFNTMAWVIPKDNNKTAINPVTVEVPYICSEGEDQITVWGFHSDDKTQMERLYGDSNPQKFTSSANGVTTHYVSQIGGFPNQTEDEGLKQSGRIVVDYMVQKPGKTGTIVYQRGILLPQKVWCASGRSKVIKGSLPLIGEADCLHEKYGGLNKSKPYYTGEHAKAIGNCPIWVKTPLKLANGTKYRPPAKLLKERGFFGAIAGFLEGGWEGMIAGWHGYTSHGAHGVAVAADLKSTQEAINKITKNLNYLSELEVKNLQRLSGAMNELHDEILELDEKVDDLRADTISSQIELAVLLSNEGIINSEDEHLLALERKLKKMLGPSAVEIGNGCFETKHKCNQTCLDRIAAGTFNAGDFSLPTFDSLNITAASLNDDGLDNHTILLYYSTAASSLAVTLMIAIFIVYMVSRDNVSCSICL

B1: C7G6-IgM (antibody, V domains shown)
VH: EVQLQQSGPELVKPGASVKISCKASGYTFTDYNMHWVKQSLGKSLEWIGYIYPNNGGTGYNQKFESKATLTADNSSSTAYMELRTLTSEDSAVYYCVRSGAYYFNYLVPYFDYWGQGTTLTVSS
VL: NIVLTQSPASLAVSLGQRGTISCRASESVDIYGNSFMHWYQQKPGQPPKLLIYLASKLECGVCARFNGSGCRTDFTLAIDPVEGDDGATYYCQQNYEDPWTFGGGTKLEIK
B2: C7G6-IgG (antibody, V domains shown)
VH: B1 VH
VL: B1 VL
B3: C3G10-IgM (antibody, V domains shown)
VH: EVQLQESGAELVKPGASVKLSCTASGFDIKDTYIHWVKQKPEKGLEWIGRIDPADGDTQSDPRFQGKATITSDTSSNTTYLHLSSLTSEDTAVYYCAKGGWYFDVWGAGTTVTVSS
VL: HIVLTQSPASLAVSLGQRGTISCRASESVDSYGNSFMHWYQQRPGQPPKLLIYLASKLKCGVPARFSGSGSRTDFTLTNDPLEGGDGATYYCQQNNEVPRTFGGGTKLEIK
B4: C3G10-IgG (antibody, V domains shown)
VH: B3 VH
VL: B3 VL
B5: C10H10-IgM (antibody, V domains shown)
VH: EIQLQQSGPELVKPGASLKVSCKGFGYSFTDYKMYWVKQSHGKSLEWIGYIDPYNGGMRYNQKFKVKATLTVDMSSNTTFMHLNSLTFEDFAVYYCARGYGKNYAMEYWGQGTSVTVSS
VL: NIVLTQSPASLAVSLGQRATISCRASESVDTYGQSFMHWYQQKPGQPPKLLIHLASNLESGVPARFNGSGSRTDFTLTIDPVEADDAATYYCQQNNEDPYTFGGGTKLEIK
B6: C10H10-IgG (antibody, V domains shown)
VH: B5 VH
VL: B5 VL
B7: C11B10 (antibody, V domains shown)
VH: EVQLQQSGPELVKPGASVKISCKASGYTFTGYNMHWVKQSHGKSLEWIGKIYPNNGVTGYNQEFRSKATLTVDNSSSTAYMELRSLTSEDSAIYFCVRSGAYYVNYLVPYFDYWGQGTTLTVSS
VL: B1 VL with L15P, G19A, V29I, Q42K, L54R, K57N, C60S, C63P, C71S, A78T

Target: T1, hemagglutinin (HA) of influenza B virus …
Assay: ELISA

Binder	binding result
B1	binds
B2	binds
B3	binds
B4	binds
B5	no binding
B6	no binding
B7	no binding

Target: B/Florida/4/2006 HA (recombinant HA protein) (Influenza B virus (B/Florida/4/2006), UniProt E1TVD5, strain, biotin (EZ-Link Sulfo-NHS-LC-Biotin kit))
Assay: BLI

Binder	Kd [nM]
B1	0.58
B2	24.7

— paper PMC6332795 (Theranostics, 2019)
